Experimental data as given in the DeepSol protein solubility set.

Assay: soluble on expression in E. coli; label from the status in PepcDB or PDB records

| Sequence | soluble on expression in E. coli |
| --- | --- |
| MAIKITPDEFSLLIQRLNKKWRVFAPSAEFRGGRFSDTDNIIYQRISGWRDLIWHEKSHMSPNTIIAPITETLFYFDKDTIQIAETDTSPIIIFARACDINAMSRLDYMYLSNGNNSDYSYQLLREHIRFVLIECEESFENCFCVSMGTNKTDCYSAAMRFSDEGALVSIRDPFIEAAIQGLGQEADYTPSFVSENRETVVTPDSVCHDPQKIRDILTHHPLWDAYDSRCISCGRCTTGCPTCTCYSVFDVAYDENPQRGERRRQWASCMVPGFSDMAGGHGFREKPGERLRYRALHKVNDYKARNGIEHMCVGCGRCDDRCPQYIKFSLIINKMTAAVRQALAEEA | not soluble |
| MEEHPRAWIISVGNELLIGRTINTNAAWLGSRLTLLGFEVERVVTVPDRVEDIAEEVGRALGRARVVITTGGLGPTYDDVTLQGVAMALGRGLKLHPGALEMVRRFYSKRGLGLTEDRVKMAMLPDGAEPLENPVGAAPGAVVEARGSLVASLPGVPSEMEAMFEKALRPLLEEIAPPGAVVECGIAVVGVPESSLAPYIKEASRVSPRVYVKSHPQGSEIGKPLVRVRVLARASTLEEARAEALKALEKVRRGVEELGGSISEEDSC | soluble |
| GPGSMTKGGSSVAEDAQLRAADTFEEAQTLLDVMLKQFHTMERNRTDPFISKVVIAGELKEDSSRPFSQVFQELIDAATVKSRNPLSEQSCPPSPPSGIFLDYGTHFVGLFEAVDRYVAELLILMDAECKSTEEPIFSDVRVLYLNDDVVPLGGQYVCFVDKIPGVVAQSEKVDVPEDVIAEMVADDVRKLTKLLSLVLSEGVSKRKNFLDNARTSHPTLFPNTSSLKMYVKSDLFLTLDEYHRVFGKLPELVRDVEVNHPVDQPLKY | soluble |
| MSLKYAWIDEQCRHYPLSALCEVLAVSINGYRAWKRGGTVQRKRLTDAQLLTLIRTIHAEVKGAYGSPRMTEEIRARGFPASKARVERLMSKNGIRARHKRRYRVTTDSKHKLPVAPNLLNRDFTPDAPNQVFSSDITYIWTDEGWLYLAVVLDLFNREVVGWSIKPRMTADLVTDALMMAWFRRKPAPGALHHSDRGSQYASHEFQRKLADYGMHCSMSRKGNCWDNAPTESFFNSLKNERVHATHYRTHREAAADLFEYIEVFYSRSRRHSSLGFVPPTQFLQDWLTAQQVKDAVAEGHHHHHH | not soluble |
| MGSDKIHHHHHHMFEAFGDMSLDLLRAFEVAARLRSFTAAAIELGTIQPAVSQQIKRLEEQLATRLFDRIYRGIELTEAGEILFSHVQAGLQSIDSGLIAITEQQQHEVLQVATDFAFAAYWLMPRLHRFHKLNPDVDVSLVTSERTHSMLRADIDVTVLFGDGRFKQGESRWLFSEEVFPVCSPLLIADRQTPLPNDALRDFPLLHLRGDSINNWFDWSGVFRALDIPQAPAPGQLRFDNYTLLIQAAIGGQGIAIGWKHLVDDLLDQGLLCRPIAGAAISGHGYYVVLPQRKRRVQIVQQFMDWLASEQALSGVSLAGRPLPSIAV | not soluble |
| MSKCSADETPVCCCMDVGTIMDNSDCTASYSRVFATRAEAEETLAALTEKARSVESEPCQITPTFTEESEGVRLDIDFVFACEAETLIFQLGLRLEHHHHHH | not soluble |
| MTEASEINLSDIKGPIDVNTPITNHRTALIQNYSTKPKLTYQTVFGVNGPLVIVHNVKFPMFNEIVKITLPNGQIRMGQVLESSKNKAVVQVFEGTTGVDAKFTTCEFTGDIFRSPVSLDMLGRIFNGSGKPIDKGPPVLPEDYLDINGQPINPFNRIYPEEMIQTGISAIDVMNSIARGQKIPIFSAAGLPHNEIAAQIVRQGGLVQLPGRNNETVNFAIVFAAMGVNMETARFFKQDFEECGSMDNVCLFLNLANDPTIERIITPRIALTAAEFFAYHCGKHVLVVLTDMSSYAEALREISAAREEVPGRRGFPGYMYTDLATIYERAGRVKGREGSITQIPILTMPNNDITHPIPDLTGYITEGQIYIDKQLHKRLIYPPIDVLPSLSRLMKSAVGEGMTREDHSDLSNQLYACYAMGKDVQAMKAVVGVEALSPDDLLYLEFLAKFEKNFIAQGRYENRTIVESLNIGWELLRIFPREMLKRIPETLLEKYYKRKKQ | not soluble |
| MGSDKIHHHHHHMKFPRIGLPKEKVIELINEKTKKDLTFSSGKILGSMCTMPHDLAIEVYTKYIDRNLGDPGLHPGTRKIEEEVIEMISDLLHLEKGHGHIVSGGTEANILAVRAFRNLSDVEKPELILPKSAHFSFIKAGEMLGVKLVWAELNPDYTVDVRDVEAKISDNTIGIVGIAGTTGLGVVDDIPALSDLARDYGIPLHVDAAFGGFVIPFAKELGYELPDFDFKLKGVQSITIDPHKMGMAPIPAGGIVFRRKKYLKAISVLAPYLAGGKVWQATITGTRPGASVIAVWALIKHLGFEGYMRIVERAMKLSRWFAEEIKKINNAWLVREPMLNIVSFQTKNLKKVERELKSRGWGISAHRGYIRIVFMPHVTREMIEEFLKDLKEVLS | not soluble |
| MAHHHHHHMRPYKRVLIKLSGGALADQTGNSFNSKRLEHIANEILSIVDLGIEVSIVIGGGNIFRGHLAEEWGIDRVEADNIGTLGTIINSLMLRGVLTSKTNKEVRVMTSIPFNAVAEPYIRLRAVHHLDNGYIVIFGGGNGQPFVTTDYPSVQRAIEMNSDAILVAKQGVDGVFTSDPKHNKSAKMYRKLNYNDVVRQNIQVMDQAALLLARDYNLPAHVFNFDEPGVMRRICLGEHVGTLINDDASLLVHEK | soluble |
| MKFGGVLLIVKDINKSKKFYEDVMEQKITLDLGEHVSFENGFGLQSNYKAIIGYDLPIYQQSNNFQLYFEVNDIKQWESKINRIGNIEFLHYIKEYPWGQRTFRFYDFDKNIIEISESMESVIKRLLKQGLALEEISKRTMYPVEFITQFQQLLEHHHHHH | soluble |
| YFSAICQARKNVYIETPYFIPDESLLKAIKSAALSGVDVRIIFPKIADHKIVNIASYSYFEEILRAGGKVYLYNKGFIHSKVVIIDDKIASAGTANMDLRSFMLNFEVNAFIYDEEVIRVMTDDFFEDLSYCEELNLEVFKNRNIIQKIKESVARLFSPIL | soluble |
| MIRFARPKPIIDSVSYNLLQKCYASGTPKGKSKLKTGQSLKRNKLTIKKGGGNGGGRGGDEVDKGKGRISDQCINAPCPVRYLRPKEREREARREKLGLISKARQKEIDFQKKGGSFTMGVTTAPMRIGTPGLDYISLGIFTEDELPKYKVTVEDGIRLAKEYSRVLMREHRARRVAEISLMKMRNAAVEALPENLKKAALVRDLTPFPVSRGTVRLLHLLKGIWRGL | soluble |
| MLPANEIKGVLAFLREAERLKSVIRSGYTSTGRPESTAEHTWRLCLMAMLLADGLGDIDVARLLKICIVHDLGEALHGDVPAVAQVEGDDRAARERADIETLTQSLDDKRRAELLGLWHDYETGASPEGRLAKGLDKLETILQHTQGLNPADFDYAFNLDYGARHTAVHPLVSAIRAELDNDTRARMALQQASGAPH | not soluble |
| MAHHHHHHMNAKNDASESLLCGGEDISALVVDLGFSTTKIGHNQEDTPRVFLRSTCGEDVSPDGGSPRGDPSPKLKFPLNLHNPKEHLRIKPLFERNPVDNTTHMNSDVFERILRYGIEGVESKRVFHCSDEIPTPVKLGGLNLKIEEHPILLSEENIHNHRVRAEMTEILFETFNIPAVYFAKKAKLTAFSLGRSNALVIDIGGSSLNVTPVYEGYVLQRNSLQFGVGGDYFDRLIYGMLRKDQVRVVPYYEQGRGGSGGLGSASASCSPSCSFSGATHHPNVHSSYEEEAILDVIRYMKESICKVRVAHQSSANKKSETTSGGLKNGKEVEPTGQTHNGAKNVNAPKWQTGQTEEEEFFELPDGVKIKTDKYRYDIAEELFRAVPSAHNFNGLPEAIVNCIISSDVDIRKELLQAIIVTGGSSLFPGLVDRLYNSLREKECFSQSIKMKILNMTSSVECLYSSWLGGSILASLGTFQQLWVSRAEYDDAGHAIVSDRCF | not soluble |
| MGSDKIHHHHHHMFLNLIATAGNDRIRDFLVNDWYRSLKENVDLSKTDVLVINYGLTGLPKEVINFPAVERSGLINNTRFINLAIFLENHPEYDQILFCDGGDIIFQSDISHLFEEHRDAFRAVVEQLSPPIDLVVKEEDLVNGKEIKSFLSNKKLFNVGVIIAPREGFLELARTMERRLKNINVWGGDTVIGNYVIYKNPHVELPSKYNFIPSTAREKFYVKDSKFYLENGELIPIVHNAGRYRFLRPVKDFGYGPGKNRVNKFNIWMFRMLFSVSNFLKMK | not soluble |
